Values quoted from earlier work, collected in PMC7680388.

Target: Ubiquitin (Homo sapiens) (UniProt P0CG48)

Chain of Rpn13 (Q16186 2-407): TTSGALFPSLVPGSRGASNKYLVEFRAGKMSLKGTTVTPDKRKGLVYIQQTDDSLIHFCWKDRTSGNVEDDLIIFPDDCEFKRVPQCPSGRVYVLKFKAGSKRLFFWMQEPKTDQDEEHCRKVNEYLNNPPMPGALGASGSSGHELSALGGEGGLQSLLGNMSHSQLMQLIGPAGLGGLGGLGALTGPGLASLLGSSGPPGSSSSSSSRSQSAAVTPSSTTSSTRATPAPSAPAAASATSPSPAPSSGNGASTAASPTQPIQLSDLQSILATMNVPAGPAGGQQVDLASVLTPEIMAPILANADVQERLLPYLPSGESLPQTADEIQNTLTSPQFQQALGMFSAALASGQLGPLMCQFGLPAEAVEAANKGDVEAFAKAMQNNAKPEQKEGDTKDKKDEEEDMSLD

Kd: 40 µM
Substance: Rpn13 (from UniProt Q16186)
